B1: Round 2 CD28A12-5 (ligand)
chain: ITPKSVTKRVKETVMLSCDYNTSTEELTSLRIYWRKDSKMXLAILPGKVQVWPEYKNRTITDMNDNLRIVILALRLSDSGTYTCVIQKPDLKGAYKLEHLTSVRLMIRADFPVPTINDLGNPSPNIRRLICSTSGGFPRPHLYWLENGEELNATNTTVSQDPGTELYMISSELDFNVTNNHSIVCLIKYGELLVSQIFPWSKPKQEPPIDQLPFWVIIPVSGALVLTAVVLYCLACRHVARWKRTRRNEETVGTERLSPIYLGSAQSSG
modifications: not fully specified; X: residue not identified in the source; ends and bridges not checked; also: glycosylated membrane protein, sites not given here
B2: Round 2 CD28A4-9 (ligand)
chain: ITPKSVTKRVKETVMLSCDYNTSTEKLTSLRIYWQKDSKMVLAILPGKVQVWPEYKNRTITDMNDNPRIVILALRLSDSGTYTCVIQKPVLKGAYKLEHLTSVRLMIRADFPVPTINDLGNPSPNIRRLICSTSGGFPRPHLYWLENGEELNATNTTVSQDPETKLYMISSELDFNVTNNHSIVCLIKYGELSVSQIFPWSKPKQEPPIDQLPFWVIIPVSGALVLTAVVLYCPACRHVARWKRTRRNEETVGTERLSPIYLGSAQSRAEVPSLSX
modifications: not fully specified; X: residue not identified in the source; ends and bridges not checked

Target: soluble CD28-Ig Fc fusion protein (extracellular domain of human CD28 and Fc portion of human IgG1; R&D Systems) (human), P10747
Assay: competitive FACS on transfected 293 cells; competitor sCTLA-4-Ig; score 0/1/2 = CD28/CTLA-4 binding ratio like / greater / significantly greater than WT hB7-1

Binder	Binding Score
B1	1
B2	1

Reference: US7183376
